One assay deals with T1, miR2-FL-WT-FLAG (mouse, UniProt Q80WQ6 1-827).
T1 construct: on MEF-DKO cells
T1 sequence: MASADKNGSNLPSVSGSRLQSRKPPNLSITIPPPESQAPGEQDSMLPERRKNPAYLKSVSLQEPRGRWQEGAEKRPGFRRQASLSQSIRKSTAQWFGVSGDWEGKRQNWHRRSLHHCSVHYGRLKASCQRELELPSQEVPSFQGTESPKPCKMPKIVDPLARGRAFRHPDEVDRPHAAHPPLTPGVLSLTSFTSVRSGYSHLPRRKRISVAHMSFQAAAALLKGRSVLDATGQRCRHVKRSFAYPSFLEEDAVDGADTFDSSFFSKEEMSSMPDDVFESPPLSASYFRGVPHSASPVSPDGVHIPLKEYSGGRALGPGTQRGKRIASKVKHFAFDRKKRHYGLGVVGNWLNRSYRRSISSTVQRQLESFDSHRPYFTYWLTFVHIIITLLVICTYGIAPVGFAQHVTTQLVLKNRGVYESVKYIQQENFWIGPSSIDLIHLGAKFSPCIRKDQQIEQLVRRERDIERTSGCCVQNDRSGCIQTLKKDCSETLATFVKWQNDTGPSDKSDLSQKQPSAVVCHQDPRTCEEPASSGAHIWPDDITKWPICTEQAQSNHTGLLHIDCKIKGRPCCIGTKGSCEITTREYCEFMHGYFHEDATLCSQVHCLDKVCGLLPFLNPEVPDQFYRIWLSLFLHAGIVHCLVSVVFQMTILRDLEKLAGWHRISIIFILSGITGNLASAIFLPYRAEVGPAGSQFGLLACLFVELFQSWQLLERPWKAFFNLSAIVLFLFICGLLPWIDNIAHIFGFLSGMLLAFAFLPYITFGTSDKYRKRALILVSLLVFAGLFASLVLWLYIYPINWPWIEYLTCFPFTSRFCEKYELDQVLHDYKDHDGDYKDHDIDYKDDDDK
Nature of the assay: FACS on MEF-DKO-miR2-FL-WT-FLAG cells.

In a further assay the target is T2, hiR2-FL-F588A-T7 (human, UniProt Q6PJF5 1-856).
T2 sequence: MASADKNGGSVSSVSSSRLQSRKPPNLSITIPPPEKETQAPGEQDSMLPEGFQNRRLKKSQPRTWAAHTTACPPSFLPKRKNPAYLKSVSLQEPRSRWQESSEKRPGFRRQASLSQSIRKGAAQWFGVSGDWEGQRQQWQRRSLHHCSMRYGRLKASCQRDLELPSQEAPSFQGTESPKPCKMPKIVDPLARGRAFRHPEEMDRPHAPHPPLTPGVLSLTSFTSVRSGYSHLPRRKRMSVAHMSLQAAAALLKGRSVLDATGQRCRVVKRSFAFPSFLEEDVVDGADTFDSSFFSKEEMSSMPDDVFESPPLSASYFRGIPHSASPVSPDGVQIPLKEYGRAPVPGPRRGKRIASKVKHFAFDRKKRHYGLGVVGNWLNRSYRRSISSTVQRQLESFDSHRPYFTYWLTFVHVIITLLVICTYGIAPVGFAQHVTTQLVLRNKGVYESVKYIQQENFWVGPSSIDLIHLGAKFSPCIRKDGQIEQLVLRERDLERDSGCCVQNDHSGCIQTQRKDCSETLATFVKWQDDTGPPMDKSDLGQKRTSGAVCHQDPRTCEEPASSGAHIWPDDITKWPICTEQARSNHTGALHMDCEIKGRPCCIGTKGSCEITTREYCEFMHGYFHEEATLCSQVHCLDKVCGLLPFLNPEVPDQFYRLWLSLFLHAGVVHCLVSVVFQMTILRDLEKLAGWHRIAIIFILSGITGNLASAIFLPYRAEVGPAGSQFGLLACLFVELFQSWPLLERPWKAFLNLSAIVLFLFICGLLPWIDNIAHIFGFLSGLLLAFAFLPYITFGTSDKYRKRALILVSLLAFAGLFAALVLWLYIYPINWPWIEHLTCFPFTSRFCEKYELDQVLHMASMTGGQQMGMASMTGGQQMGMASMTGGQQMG
Description: FACS on MEF-DKO cells expressing the variant, 3 µg/ml antibody. In a few lines:
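Pelleted cells are resuspended in antibody at 3 μg/ml and kept on ice 1 hour, washed, then incubated with PE goat anti-mouse IgG F(ab′)2 diluted 1:100 on ice for 1 hour protected from light, washed again and analysed by flow cytometry.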

These results are taken from patent US20240287172A1 (SCIRHOM, published 2024).

B1: antibody 3 (antibody, V domains shown)
VH: QVTLKESGPGILQPSQTLSLTCSFSGFSLTTFAMGIGWVRQPSGKGLEWLAHIWWDGEKYNNPVLKSRLTISKDTSKNQVFLRIANVDTPDTATYYCARISSIYYIIDNWGQGTSVTVSS
VL: DIVLTQSPATLSVTPGHSVSLSCRASQSISNNLHWYQKKSHESPRLLIKYVSQSISGIPSRFSGSGSGTDFTLSINSVETEDFGMYFCQQSYNWPLTFGAGTKLELK
notes: mouse IgG, kappa light chain; also called clone #3; purified antibody 3
As for B1, the binding result with miR2-FL-WT-FLAG is listed as “no binding (tested: 3 µg/ml)”.

B2: antibody 48 (antibody, V domains shown)
VH: QVQLQQSGTELVRPGTSVKVSCKASGYAFTNYLIEWVKQRPGQGLEWIGVINPGSGFTKYNEKFKGKATLTADKSSSTVYMHLSSLTSEDSAVYFCARGLYRAMDYWGQGTSVTVSS
VL: DIQMTQSPASQSASLGESVTITCLASQTIATWLAWYQQKPGKSPQLLIYGATTLADGVPSRFSGGGSGTKFSFKISSLQAEDFVSYYCQQLYSTPYTFGGGTKLEIK
notes: mouse IgG, kappa light chain; also called clone #48; purified antibody 48
As for B2, the “loss of binding vs wild type” value with hiR2-FL-F588A-T7 is at least 30%.
